{"source": "paper PMC6145873", "key": {"[1]": {"target": "Thermus thermophilus PilF type IVa pilus assembly ATPase, full length (Thermus thermophilus HB8)", "experiment": "cryo-EM structure; single particle reconstructions of full length TtPilF as apoprotein and with 1 mM AMPPNP; ~200 μg/ml; 25 mM HEPES pH 7.5, 150 mM NaCl, 5 mM MgCl2, 5% glycerol; C2 symmetry applied"}, "[2]": {"target": "TtPilFc, C-terminal tryptic fragment of Thermus thermophilus PilF (N2, CTD and Zn-binding domains) (Thermus thermophilus HB8)", "experiment": "crystal structure; TtPilFc with bound ATP/Mg2+, space group C2, 2.44 Å; crystals at 20 °C in 0.2 M sodium bromide, 0.1 M Bis-Tris propane pH 6.5, 20% PEG 3350"}}, "data": [{"substance": "Thermus thermophilus PilF type IVa pilus assembly ATPase, full length (enzyme)", "values": [{"measurement": "stoichiometry N", "setting": "[1]", "value": 6}]}, {"substance": "TtPilFc, C-terminal tryptic fragment of Thermus thermophilus PilF (N2, CTD and Zn-binding domains) (domain or fragment)", "values": [{"measurement": "stoichiometry N", "setting": "[2]", "value": 6}]}]}
